Test results from patent US20140087995A1 (published 2014).
Numbered stars: 1 amine (or outer) side, 2 acyl side, 3 side chain; on linkers, the order of the positions; unused ones are H or OH. Bridge positions count the residues as written; N and C are the ends. Side chains are listed from the residue outwards. Ends that are not written are not given here. * marks the point of attachment. C20 diacid = O=C(O)CCCCCCCCCCCCCCCCCCC(=O)*; γGlu = O=C(O)[C@H](CCC(=O)[*:2])N[*:1]; AEEA = NCCOCCOCC(=O)O

How the values were obtained:
[1] = target: T1, rat calcitonin receptor (rat, UniProt P32214 25-516); assay: ratio IC50 rat calcitonin receptor / IC50 rat amylin receptor
T1 construct: whole, on cells; Cell membranes of transiently transfected BHK tk'ts 13 cells (Assay VIII); also called rCTR; rCT
T1 sequence (looked up): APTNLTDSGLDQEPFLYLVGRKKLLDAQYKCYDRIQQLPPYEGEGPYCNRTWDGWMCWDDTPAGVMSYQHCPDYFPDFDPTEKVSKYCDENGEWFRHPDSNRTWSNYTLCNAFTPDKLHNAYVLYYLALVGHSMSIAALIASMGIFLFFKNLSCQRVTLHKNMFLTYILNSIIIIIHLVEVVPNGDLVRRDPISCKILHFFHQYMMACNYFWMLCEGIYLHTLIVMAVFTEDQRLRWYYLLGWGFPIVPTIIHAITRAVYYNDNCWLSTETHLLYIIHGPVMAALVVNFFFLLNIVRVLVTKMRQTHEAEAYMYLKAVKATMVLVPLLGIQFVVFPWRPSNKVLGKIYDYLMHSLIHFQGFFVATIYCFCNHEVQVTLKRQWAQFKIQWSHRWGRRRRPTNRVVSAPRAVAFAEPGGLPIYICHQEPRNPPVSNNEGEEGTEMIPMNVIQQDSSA

[2] = target: T2, human calcitonin receptor (human, UniProt P30988 25-474); assay: ratio IC50 human calcitonin receptor / IC50 human amylin receptor
T2 construct: whole, on cells; Cell membranes of a stably transfected BHK cell line (Assay VII); also called hCTR; hCT
T2 sequence (looked up): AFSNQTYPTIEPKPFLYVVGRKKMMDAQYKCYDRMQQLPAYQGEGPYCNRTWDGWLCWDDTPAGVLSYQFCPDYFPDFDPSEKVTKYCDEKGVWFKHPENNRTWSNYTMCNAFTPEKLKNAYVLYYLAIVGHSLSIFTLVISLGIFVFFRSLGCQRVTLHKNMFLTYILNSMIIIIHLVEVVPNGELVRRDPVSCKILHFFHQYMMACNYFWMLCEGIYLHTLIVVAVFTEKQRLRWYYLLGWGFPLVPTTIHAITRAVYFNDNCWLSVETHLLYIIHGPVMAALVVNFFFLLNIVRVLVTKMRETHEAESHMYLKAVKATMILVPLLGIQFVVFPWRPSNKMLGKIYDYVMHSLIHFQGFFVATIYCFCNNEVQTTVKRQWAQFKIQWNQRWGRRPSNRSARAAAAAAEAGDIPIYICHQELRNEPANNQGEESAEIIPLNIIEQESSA
How it was run: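 Competition binding by SPA with cell membranes (35 ng/μL) and SPA beads in 50 mM Hepes pH 7.4 with 1 mM CaCl2, 5 mM MgCl2, 0.1% OA and 0.02% Tween20. Incubated 120 min at 25 °C with shaking, then counted.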

[3] = target: T1, rat calcitonin receptor; assay: SPA competition vs 125I-calcitonin, membranes with rat CTR (Assay VIII)
[4] = target: T3, rat amylin receptor (rat calcitonin receptor + rat RAMP 3) (rat, UniProt P32214 25-516; Q9JJ73 23-147); assay: SPA competition vs 125I-rat amylin, membranes with rat CTR + rat RAMP3 (Assay VI)
T3 construct: whole, on cells; Cell membranes of transiently transfected BHK tk'ts 13 cells (Assay VI); also called rAmylin-R; rat amylin 3(a) receptor
T3 sequence (looked up) 1: T1 sequence (looked up)
T3 sequence (looked up) 2: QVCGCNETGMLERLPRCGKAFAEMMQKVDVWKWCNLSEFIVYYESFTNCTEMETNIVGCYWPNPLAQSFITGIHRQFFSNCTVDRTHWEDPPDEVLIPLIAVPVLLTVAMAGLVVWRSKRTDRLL

[5] = target: T4, human amylin 3(a) receptor (human calcitonin receptor + RAMP-3) (human, UniProt P30988 25-474; O60896 24-148, limits assumed); assay: cell-based or functional assay
T4 sequence (looked up) 1: T2 sequence (looked up)
T4 sequence (looked up) 2: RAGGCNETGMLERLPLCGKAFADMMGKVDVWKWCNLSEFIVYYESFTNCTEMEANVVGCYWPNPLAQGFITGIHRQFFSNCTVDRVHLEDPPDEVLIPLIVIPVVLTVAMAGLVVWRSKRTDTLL

[6] = target: T5, human calcitonin receptor (human, UniProt P30988 25-474); assay: cell-based or functional assay
T5 sequence (looked up): T2 sequence (looked up)

B1: N^ε1-[(4S)-4-carboxy-4-(19-carboxynonadecanoylamino)butanoyl]-[Arg17,Pro21,Pro27]-h-amylin (peptide)
peptide: K([γGlu-C20 diacid])CNTATCATQRLANFLRHSSPNFGAIPSSTNVGSNTY-NH2
modifications: disulfide 2-7; N-terminus assumed
SMILES: CC[C@H](C)[C@H](NC(=O)[C@H](C)NC(=O)CNC(=O)[C@H](Cc1ccccc1)NC(=O)[C@H](CC(N)=O)NC(=O)[C@@H]1CCCN1C(=O)[C@H](CO)NC(=O)[C@H](CO)NC(=O)[C@H](Cc1c[nH]cn1)NC(=O)[C@H](CCCNC(=N)N)NC(=O)[C@H](CC(C)C)NC(=O)[C@H](Cc1ccccc1)NC(=O)[C@H](CC(N)=O)NC(=O)[C@H](C)NC(=O)[C@H](CC(C)C)NC(=O)[C@H](CCCNC(=N)N)NC(=O)[C@H](CCC(N)=O)NC(=O)[C@@H](NC(=O)[C@H](C)NC(=O)[C@@H]1CSSC[C@H](NC(=O)[C@@H](N)CCCCNC(=O)CC[C@H](NC(=O)CCCCCCCCCCCCCCCCCCC(=O)O)C(=O)O)C(=O)N[C@@H](CC(N)=O)C(=O)N[C@@H]([C@@H](C)O)C(=O)N[C@@H](C)C(=O)N[C@@H]([C@@H](C)O)C(=O)N1)[C@@H](C)O)C(=O)N1CCC[C@H]1C(=O)N[C@@H](CO)C(=O)N[C@@H](CO)C(=O)N[C@H](C(=O)N[C@@H](CC(N)=O)C(=O)N[C@H](C(=O)NCC(=O)N[C@@H](CO)C(=O)N[C@@H](CC(N)=O)C(=O)N[C@H](C(=O)N[C@@H](Cc1ccc(O)cc1)C(N)=O)[C@@H](C)O)C(C)C)[C@@H](C)O
notes: Acylated analogue of human amylin; also called compound 48
[1]
  Ratio rCT/rAmylin binding: 201
[2]
  Ratio hCT/hAmylin binding: 69.7
[3]
  IC50: 112 nM
[4]
  IC50: 0.558 nM

B2: N^α1-[(4S)-4-carboxy-4-(19-carboxynonadecanoylamino)butanoyl]-[Glu14,Arg17,Pro21,Pro27,Pro37]-h-amylin (peptide)
peptide: {C20 diacid-γGlu}-KCNTATCATQRLAEFLRHSSPNFGAIPSSTNVGSNTP-NH2
modifications: disulfide 2-7
SMILES: CC[C@H](C)[C@H](NC(=O)[C@H](C)NC(=O)CNC(=O)[C@H](Cc1ccccc1)NC(=O)[C@H](CC(N)=O)NC(=O)[C@@H]1CCCN1C(=O)[C@H](CO)NC(=O)[C@H](CO)NC(=O)[C@H](Cc1c[nH]cn1)NC(=O)[C@H](CCCNC(=N)N)NC(=O)[C@H](CC(C)C)NC(=O)[C@H](Cc1ccccc1)NC(=O)[C@H](CCC(=O)O)NC(=O)[C@H](C)NC(=O)[C@H](CC(C)C)NC(=O)[C@H](CCCNC(=N)N)NC(=O)[C@H](CCC(N)=O)NC(=O)[C@@H](NC(=O)[C@H](C)NC(=O)[C@@H]1CSSC[C@H](NC(=O)[C@H](CCCCN)NC(=O)CC[C@H](NC(=O)CCCCCCCCCCCCCCCCCCC(=O)O)C(=O)O)C(=O)N[C@@H](CC(N)=O)C(=O)N[C@@H]([C@@H](C)O)C(=O)N[C@@H](C)C(=O)N[C@@H]([C@@H](C)O)C(=O)N1)[C@@H](C)O)C(=O)N1CCC[C@H]1C(=O)N[C@@H](CO)C(=O)N[C@@H](CO)C(=O)N[C@H](C(=O)N[C@@H](CC(N)=O)C(=O)N[C@H](C(=O)NCC(=O)N[C@@H](CO)C(=O)N[C@@H](CC(N)=O)C(=O)N[C@H](C(=O)N1CCC[C@H]1C(N)=O)[C@@H](C)O)C(C)C)[C@@H](C)O
notes: also called compound 8
[5]
  hAmylin-R funct. EC50 (pM): 82 pM
[6]
  Ratio hCT/hAmylin funct.: 1.1

B3: N^-1-[(4S)-4-carboxy-4-(19-carboxynonadecanoylamino)butanoyl]-Gly[Arg1,Arg17,Pro21,Pro27]-h-amylin (peptide)
peptide: {C20 diacid-γGlu}-GRCNTATCATQRLANFLRHSSPNFGAIPSSTNVGSNTY-NH2
modifications: disulfide 3-8
SMILES: CC[C@H](C)[C@H](NC(=O)[C@H](C)NC(=O)CNC(=O)[C@H](Cc1ccccc1)NC(=O)[C@H](CC(N)=O)NC(=O)[C@@H]1CCCN1C(=O)[C@H](CO)NC(=O)[C@H](CO)NC(=O)[C@H](Cc1c[nH]cn1)NC(=O)[C@H](CCCNC(=N)N)NC(=O)[C@H](CC(C)C)NC(=O)[C@H](Cc1ccccc1)NC(=O)[C@H](CC(N)=O)NC(=O)[C@H](C)NC(=O)[C@H](CC(C)C)NC(=O)[C@H](CCCNC(=N)N)NC(=O)[C@H](CCC(N)=O)NC(=O)[C@@H](NC(=O)[C@H](C)NC(=O)[C@@H]1CSSC[C@H](NC(=O)[C@H](CCCNC(=N)N)NC(=O)CNC(=O)CC[C@H](NC(=O)CCCCCCCCCCCCCCCCCCC(=O)O)C(=O)O)C(=O)N[C@@H](CC(N)=O)C(=O)N[C@@H]([C@@H](C)O)C(=O)N[C@@H](C)C(=O)N[C@@H]([C@@H](C)O)C(=O)N1)[C@@H](C)O)C(=O)N1CCC[C@H]1C(=O)N[C@@H](CO)C(=O)N[C@@H](CO)C(=O)N[C@H](C(=O)N[C@@H](CC(N)=O)C(=O)N[C@H](C(=O)NCC(=O)N[C@@H](CO)C(=O)N[C@@H](CC(N)=O)C(=O)N[C@H](C(=O)N[C@@H](Cc1ccc(O)cc1)C(N)=O)[C@@H](C)O)C(C)C)[C@@H](C)O
notes: Acylated analogue of human amylin, extended by one residue at the N-terminus; also called compound 46
[1]
  Ratio rCT/rAmylin binding: 142
[2]
  Ratio hCT/hAmylin binding: 48.9
[3]
  IC50: 46.8 nM
[4]
  IC50: 0.33 nM

B4: N^ε-[2-[2-[2-[[(4S)-4-carboxy-4-(19-carboxynonadecanoylamino)butanoyl]amino]ethoxy]ethoxy]acetyl]Lys[Arg1,Arg17,Pro21,Pro27,His35]-h-amylin (peptide)
peptide: K([AEEA-γGlu-C20 diacid])RCNTATCATQRLANFLRHSSPNFGAIPSSTNVGSHTY-NH2
modifications: disulfide 3-8; N-terminus assumed
SMILES: CC[C@H](C)[C@H](NC(=O)[C@H](C)NC(=O)CNC(=O)[C@H](Cc1ccccc1)NC(=O)[C@H](CC(N)=O)NC(=O)[C@@H]1CCCN1C(=O)[C@H](CO)NC(=O)[C@H](CO)NC(=O)[C@H](Cc1c[nH]cn1)NC(=O)[C@H](CCCNC(=N)N)NC(=O)[C@H](CC(C)C)NC(=O)[C@H](Cc1ccccc1)NC(=O)[C@H](CC(N)=O)NC(=O)[C@H](C)NC(=O)[C@H](CC(C)C)NC(=O)[C@H](CCCNC(=N)N)NC(=O)[C@H](CCC(N)=O)NC(=O)[C@@H](NC(=O)[C@H](C)NC(=O)[C@@H]1CSSC[C@H](NC(=O)[C@H](CCCNC(=N)N)NC(=O)[C@@H](N)CCCCNC(=O)COCCOCCNC(=O)CC[C@H](NC(=O)CCCCCCCCCCCCCCCCCCC(=O)O)C(=O)O)C(=O)N[C@@H](CC(N)=O)C(=O)N[C@@H]([C@@H](C)O)C(=O)N[C@@H](C)C(=O)N[C@@H]([C@@H](C)O)C(=O)N1)[C@@H](C)O)C(=O)N1CCC[C@H]1C(=O)N[C@@H](CO)C(=O)N[C@@H](CO)C(=O)N[C@H](C(=O)N[C@@H](CC(N)=O)C(=O)N[C@H](C(=O)NCC(=O)N[C@@H](CO)C(=O)N[C@@H](Cc1c[nH]cn1)C(=O)N[C@H](C(=O)N[C@@H](Cc1ccc(O)cc1)C(N)=O)[C@@H](C)O)C(C)C)[C@@H](C)O
notes: Acylated analogue of human amylin, extended by one residue at the N-terminus; also called compound 45
[1]
  Ratio rCT/rAmylin binding: 67.1
[2]
  Ratio hCT/hAmylin binding: 26.8
[3]
  IC50: 41.8 nM
[4]
  IC50: 0.623 nM
